Bridge positions count the residues as written; N and C are the ends. Square brackets hold non-standard residues; d marks the D form. Primed or numbered codes have the meaning given here. Trp(βS-Me,7-OMe) = COc1cccc2c([C@H](C)[C@H](N)C(=O)O)c[nH]c12; Phe(2-F,4-COOH) = N[C@@H](Cc1ccc(C(=O)O)cc1F)C(=O)O; Trp(7-CN) = N#Cc1cccc2c(C[C@H](N)C(=O)O)c[nH]c12; Trp(7-Cl) = N[C@@H](Cc1c[nH]c2c(Cl)cccc12)C(=O)O; Phe(3-COOH) = N[C@@H](Cc1cccc(C(=O)O)c1)C(=O)O; Phe(4-CONH2) = NC(=O)c1ccc(C[C@H](N)C(=O)O)cc1; Phe(4-COOH) = N[C@@H](Cc1ccc(C(=O)O)cc1)C(=O)O; Trp(7-aza) = N[C@@H](Cc1c[nH]c2ncccc12)C(=O)O; dPro(trans-4-F) = O=C(O)[C@H]1C[C@H](F)CN1; αMeW = C[C@](N)(Cc1c[nH]c2ccccc12)C(=O)O; Pip(4-aza) = O=C(O)[C@@H]1CNCCN1; 3Pal = N[C@@H](Cc1cccnc1)C(=O)O; 4Pal = N[C@@H](Cc1ccncc1)C(=O)O; NMeE = CN[C@@H](CCC(=O)O)C(=O)O; dHyp = O=C(O)[C@H]1C[C@H](O)CN1; dNMeE = CN[C@H](CCC(=O)O)C(=O)O; Pipt5OH = not defined here; αMeS = C[C@](N)(CO)C(=O)O; Nle = CCCC[C@H](N)C(=O)O; Pip2c = not defined here; TZAla = not defined here; Dab = NCC[C@H](N)C(=O)O; Pip′ = not defined here; Sar = CNCC(=O)O

The chains are these.
B1: SEQ ID NO. 277 (peptide)
peptide: {CH2CO}-[Nle][4Pal][Dab][Trp(7-aza)][NMeE]N[4Pal][Trp(7-Cl)][αMeS][Phe(4-COOH)]Y[Sar][αMeW]C-NH2
modifications: thioether N-14
SMILES: CCCC[C@@H]1NC(=O)CSC[C@@H](C(N)=O)NC(=O)[C@](C)(Cc2c[nH]c3ccccc23)NC(=O)CN(C)C(=O)[C@H](Cc2ccc(O)cc2)NC(=O)[C@H](Cc2ccc(C(=O)O)cc2)NC(=O)[C@](C)(CO)NC(=O)[C@H](Cc2c[nH]c3c(Cl)cccc23)NC(=O)[C@H](Cc2ccncc2)NC(=O)[C@H](CC(N)=O)NC(=O)[C@H](CCC(=O)O)N(C)C(=O)[C@H](Cc2c[nH]c3ncccc23)NC(=O)[C@H](CCN)NC(=O)[C@H](Cc2ccncc2)NC1=O
B2: SEQ ID NO. 279 (peptide)
peptide: {CH2CO}-[Nle][4Pal][Pip(4-aza)]W[dPro(trans-4-F)]N[4Pal][Trp(7-Cl)][αMeS][Phe(4-COOH)]Y[Sar][Trp(βS-Me,7-OMe)]C-NH2
modifications: thioether N-14
SMILES: CCCC[C@@H]1NC(=O)CSC[C@@H](C(N)=O)NC(=O)[C@H]([C@@H](C)c2c[nH]c3c(OC)cccc23)NC(=O)CN(C)C(=O)[C@H](Cc2ccc(O)cc2)NC(=O)[C@H](Cc2ccc(C(=O)O)cc2)NC(=O)[C@](C)(CO)NC(=O)[C@H](Cc2c[nH]c3c(Cl)cccc23)NC(=O)[C@H](Cc2ccncc2)NC(=O)[C@H](CC(N)=O)NC(=O)[C@H]2C[C@H](F)CN2C(=O)[C@H](Cc2c[nH]c3ccccc23)NC(=O)[C@@H]2CNCCN2C(=O)[C@H](Cc2ccncc2)NC1=O
B3: SEQ ID NO. 138 (peptide)
peptide: cyclo([bhcLeu][Nle][4Pal][Pip2c]W[NMeE]N[TZAla][Trp(7-Cl)][αMeS][Phe(4-COOH)]Y[Sar][Trp(βS-Me,7-OMe)])
modifications: reading uncertain; also: printed as cyclo(bhcLeu-Nle-4Pal-Pip2c-W-NMeE-N-TZAla-Trp7Cl-aMeS-Phe4COOH-Y-Sar-SbMeW7OMe)
B4: SEQ ID NO. 107 (peptide)
peptide: cyclo([bhcLeu][Nle][4Pal][Pip2c]W[NMeE]N[4Pal][Trp(7-Cl)][αMeS][Phe(4-COOH)][Phe(2-F,4-COOH)][Sar][Trp(βS-Me,7-OMe)])
modifications: reading uncertain; also: printed as cyclo(bhcLeu-Nle-4Pal-Pip2c-W-NMeE-N-4Pal-Trp7Cl-aMeS-Phe4COOH-Phe2F4COOH-Sar-SbMeW7OMe)
B5: SEQ ID NO. 52 (peptide)
peptide: {CH2CO}-[Nle][4Pal][Pip2c][TrpCH2COOH][NMeE]N[Phe(4-COOH)][Trp(7-Cl)][αMeS][Phe(4-CONH2)]Y[Sar][Trp(βS-Me,7-OMe)]C-NH2
modifications: thioether N-14; reading uncertain; also: printed as cyclo(ClAc-Nle-4Pal-Pip2c-TrpCH2COOH-NMeE-N-Phe4COOH-Trp7Cl-aMeS-Phe4CONH2-Y-Sar-SbMeW7OMe-C)-NH2
B6: SEQ ID NO. 126 (peptide)
peptide: cyclo([bhcLeu][Nle][4Pal][Pipt5OH]W[NMeE]N[4Pal][Trp(7-Cl)][αMeS][Phe(4-CONH2)][TyrOcm][Sar][Trp(βS-Me,7-OMe)])
modifications: reading uncertain; also: printed as cyclo(bhcLeu-Nle-4Pal-Pipt5OH-W-NMeE-N-4Pal-Trp7Cl-aMeS-Phe4CONH2-TyrOcm-Sar-SbMeW7OMe)
B7: SEQ ID NO. 24 (peptide)
peptide: cyclo([bhcLeu][Nle][4Pal][Pip2c]W[NMeE]N[4Pal][Trp(7-Cl)][αMeS][Phe(4-COOH)][Tyr3OMe][Sar][Trp(βS-Me,7-OMe)])
modifications: reading uncertain; also: printed as cyclo(bhcLeu-Nle-4Pal-Pip2c-W-NMeE-N-4Pal-Trp7Cl-aMeS-Phe4COOH-Tyr3OMe-Sar-SbMeW7OMe)
B8: SEQ ID NO. 142 (peptide)
peptide: cyclo([bhcLeu][SerOEt][4Pal][Pipt5OH]W[dHyp]N[4Pal][Trp(7-Cl)][αMeS][Phe(4-CONH2)][Phe(4-COOH)][Sar][Trp(βS-Me,7-OMe)])
modifications: reading uncertain; also: printed as cyclo(bhcLeu-SerOEt-4Pal-Pipt5OH-W-dProt4OH-N-4Pal-Trp7Cl-aMeS-Phe4CONH2-Phe4COOH-Sar-SbMeW7OMe)
B9: SEQ ID NO. 108 (peptide)
peptide: cyclo([bhcLeu][Nle][4Pal][Pip2c]W[NMeE]N[Phe(2-F,4-COOH)][Trp(7-Cl)][αMeS][Phe(4-COOH)]Y[Sar][Trp(βS-Me,7-OMe)])
modifications: reading uncertain; also: printed as cyclo(bhcLeu-Nle-4Pal-Pip2c-W-NMeE-N-Phe2F4COOH-Trp7Cl-aMeS-Phe4COOH-Y-Sar-SbMeW7OMe)
B10: SEQ ID NO. 137 (peptide)
peptide: cyclo([bhcLeu][hL][4Pal][Pip2c]W[NMeE]N[4Pal][Trp(7-Cl)][αMeS][Phe(4-COOH)]Y[Sar][Trp(βS-Me,7-OMe)])
modifications: reading uncertain; also: printed as cyclo(bhcLeu-hL-4Pal-Pip2c-W-NMeE-N-4Pal-Trp7Cl-aMeS-Phe4COOH-Y-Sar-SbMeW7OMe)
B11: SEQ ID NO. 28 (peptide)
peptide: cyclo([bhcLeu][Nle][4Pal][Pip2c]W[NMeE]N[4Pal][Trp(7-Cl)][αMeS][Phe(3-COOH)]Y[Sar][Trp(βS-Me,7-OMe)])
modifications: reading uncertain; also: printed as cyclo(bhcLeu-Nle-4Pal-Pip2c-W-NMeE-N-4Pal-Trp7Cl-aMeS-Phe3COOH-Y-Sar-SbMeW7OMe)
B12: SEQ ID NO. 25 (peptide)
peptide: cyclo([bhcLeu][Nle][4Pal][Pipt5OH]W[dHyp][SbOHAsn][4Pal][Trp(7-CN)][αMeS][Phe(4-CONH2)][Phe(4-COOH)][Sar][Trp(βS-Me,7-OMe)])
modifications: reading uncertain; also: printed as cyclo(bhcLeu-Nle-4Pal-Pipt5OH-W-dProt4OH-SbOHAsn-4Pal-Trp7CN-aMeS-Phe4CONH2-Phe4COOH-Sar-SbMeW7OMe)
B13: SEQ ID NO. 40 (peptide)
peptide: cyclo([bhcLeu][Nle][3Pal][Pip2c]W[NMeE]N[4Pal][Trp(7-Cl)][αMeS][Phe(4-COOH)]Y[Sar][Trp(βS-Me,7-OMe)])
modifications: reading uncertain; also: printed as cyclo(bhcLeu-Nle-3Pal-Pip2c-W-NMeE-N-4Pal-Trp7Cl-aMeS-Phe4COOH-Y-Sar-SbMeW7OMe)
B14: SEQ ID NO. 117 (peptide)
peptide: cyclo([bhcLeu][Nle][4Pal][Pip2c]W[NMeE]N[Phe4COOMe][Trp(7-Cl)][αMeS][Phe(4-COOH)]Y[Sar][Trp(βS-Me,7-OMe)])
modifications: reading uncertain; also: printed as cyclo(bhcLeu-Nle-4Pal-Pip2c-W-NMeE-N-Phe4COOMe-Trp7Cl-aMeS-Phe4COOH-Y-Sar-SbMeW7OMe)
B15: SEQ ID NO. 111 (peptide)
peptide: cyclo([bhcLeu][Nle][4Pal][Pip2c]W[NMeE]N[4Pal][Trp(7-Cl)][αMeS][F4MCO2H]Y[Sar][Trp(βS-Me,7-OMe)])
modifications: reading uncertain; also: printed as cyclo(bhcLeu-Nle-4Pal-Pip2c-W-NMeE-N-4Pal-Trp7Cl-aMeS-F4MCO2H-Y-Sar-SbMeW7OMe)

For the first assay, the target named is T1, TNFR1 on THP-1 Lucia NF-κB cells (UniProt P19438 30-455, limits assumed).
T1 sequence (looked up): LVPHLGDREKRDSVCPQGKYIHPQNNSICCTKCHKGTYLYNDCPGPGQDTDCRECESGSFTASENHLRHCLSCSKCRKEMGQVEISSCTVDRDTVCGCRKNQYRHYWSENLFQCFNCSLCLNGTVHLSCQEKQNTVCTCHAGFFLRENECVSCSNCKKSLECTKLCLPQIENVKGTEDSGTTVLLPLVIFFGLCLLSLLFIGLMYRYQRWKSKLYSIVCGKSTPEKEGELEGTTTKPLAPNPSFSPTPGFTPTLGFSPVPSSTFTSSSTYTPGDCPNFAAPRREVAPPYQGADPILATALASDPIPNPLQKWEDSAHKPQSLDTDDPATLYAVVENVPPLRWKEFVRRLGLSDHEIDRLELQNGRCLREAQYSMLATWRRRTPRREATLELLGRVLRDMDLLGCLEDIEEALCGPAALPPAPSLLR
Kind of assay: cell-based or functional assay.
In the case of B1, the “THP-1 IC50” value worked out at 3 nM. As for B2, the “THP-1 IC50” value was 1.4 nM.

For another assay, the target named is T2, TNFR1 on THP-1 Lucia NF-kB reporter cells (UniProt P19438 30-455, limits assumed).
T2 sequence (looked up): T1 sequence (looked up)
Kind of assay: cell-based or functional assay.
For cyclo([bhcLeu][Nle][4Pal][Pipc5CO2H]W[NMeE]N[4Pal][Trp(7-Cl)][αMeS][Phe(4-COOH)]Y[Sar][Trp(βS-Me,7-OMe)]) [SEQ ID NO. 120], the “THP-1 IC50” value came to 1.4 nM. Regarding {CH2CO}-[Nle][4Pal][Prot4NH2][Trp(7-aza)][NMeE]N[4Pal][Trp(7-Cl)][αMeS][Phe(4-COOH)]Y[Sar][Trp(βS-Me,7-OMe)]C-NH2 (thioether N-14) [SEQ ID NO. 125], the “THP-1 IC50” value was found to be 4.1 nM. For B3, the “THP-1 IC50” value was 2 nM. As to B4, the “THP-1 IC50” value came to 1 nM. For B5, the “THP-1 IC50” value was 3.9 nM. As to B6, the “THP-1 IC50” value was 0.8 nM. Turning to B7, the “THP-1 IC50” value was 0.7 nM. As to B8, the “THP-1 IC50” value was determined as 1.1 nM. Turning to cyclo([bhcLeu][Nle][4Pal][Pipt5OH][Trp(7-aza)][dNMeE]N[F4SO2NH2][Trp(7-CN)][αMeS][Phe(4-CONH2)][Phe(4-COOH)][Sar][Trp(βS-Me,7-OMe)]) (reading uncertain) [SEQ ID NO. 133], the “THP-1 IC50” value was found to be 1.4 nM. Turning to B9, the “THP-1 IC50” value stood at 1.2 nM. On to B10, for which the “THP-1 IC50” value worked out at 1.3 nM.

B11: the “THP-1 IC50” value is 1.6 nM.

For B12, the “THP-1 IC50” value stood at 0.8 nM. For B13, the “THP-1 IC50” value worked out at 1.5 nM. On to cyclo([bhcLeu][LysMe3][4Pal][Pip′]W[NMeE]N[4Pal][Trp(7-Cl)][αMeS][Phe(4-COOH)]Y[Sar][Trp(βS-Me,7-OMe)]) [SEQ ID NO. 47], for which the “THP-1 IC50” value is 1.9 nM. The same measure, in the same setting: under B14 stands 2.1 nM.

In the case of B15, the “THP-1 IC50” value was 1.6 nM.
